Substrate in data set [1]: C=C(OP(=O)(O)O)C(=O)O
Description: purified protein. The settings on record: co-substrate ADP, Tris-HCl pH 8.0, 37°C. Type of data set: biochemical, Trichinella spiralis.

Substrate in data set [2]: Nc1ncnc2c1ncn2[C@@H]1O[C@H](COP(=O)(O)OP(=O)(O)O)[C@@H](O)[C@H]1O
Description: purified protein. Type of data set: biochemical, Trichinella spiralis. The settings on record: co-substrate PEP, Tris-HCl pH 8.0, 37°C.

B1: rTsPKM (recombinant T. spiralis pyruvate kinase M) (Trichinella spiralis) (protein)
chain: MSEKQSQKSRKLAKVAAIPAKTTLEHLCRLDTDHSVEKLVSKTGLICTIGPASCSVETLTKMIQAGMTIARLNFSHGSHDYHAQTVANIRKAVDSLAASGNGKVVAIALDTKGPEIRTGYLAVGSNEEVVVEANSAVRVTVDSGMKFRCTESLIYVDYENMPKVVSKGSKIYIDDGLISLLVNEVADNHLDCVVEHGGKLGSCKGVNLPDCEVDLPAVSEKDAQDLQFAVKHQCDMVFASFVRSAEAVRQIRQTLGVEGRGIKIVAKIENRQGIANVDSIIEEADGVMIARGDLGIEIPAEQVFVAQKAIIAKCRLAGKPAICATQMLESMVDKARPTRAEITDVANAVLDGADCVMLSGETAKGRHPVQAVRTMHQICCQAESVFFQKHFFDELQAMLPRPMNAMDTIAFAVTTAAANCNASAIILLTNTGASAVALSKCRPSSMIISVVKKEQTARYLRLYSGILPCVYDSKNSSSSSPNAVVDWVTSVDQRINYAILFGKKERIIHDGDNVIVVNGWREGPGHTNTIRIFAVEPLIPRP
What is called Km is the substrate concentration at which the rate is half of its maximum. With B1, the Km stood at 1510 µM in data set [1] and 3330 µM in data set [2].

The values above are taken from article PMC9621426, “Characterization of a novel pyruvate kinase from Trichinella spiralis and its participation in sugar metabolism, larval molting and development” (PLOS Neglected Tropical Diseases, 2022).
